Molecular target: SARS-CoV-2 Spike protein on live virus (SARS-CoV-2, UniProt P0DTC2)
Assay: cell-based or functional assay

ESLSLSLSLSLSLEGSALEEGQLKTFLDKFMHELEDLLYQLAL [ESBP2]
IC50 of reduction in live-virus infectivity: < 10 nM
